Substitutions are numbered along the chain they refer to. Values belong to the binder of their own block, whether it stands above or below them.
How the values were obtained:
Conditions in all cases: remark: other sources report otherwise
iPHF, P10636 = experiment: Octet BLI, antibody on biosensor, iPHF in solution
[1] = target: T1, enriched paired helical filament tau protein (ePHF) (human), P10636; experiment: follow up analysis, method not stated
[2] = target: T1, enriched paired helical filament tau …; experiment: direct ELISA, ePHF coated

T1 sequence (P10636 other isoform, or with tags, fused parts or gaps limits assumed): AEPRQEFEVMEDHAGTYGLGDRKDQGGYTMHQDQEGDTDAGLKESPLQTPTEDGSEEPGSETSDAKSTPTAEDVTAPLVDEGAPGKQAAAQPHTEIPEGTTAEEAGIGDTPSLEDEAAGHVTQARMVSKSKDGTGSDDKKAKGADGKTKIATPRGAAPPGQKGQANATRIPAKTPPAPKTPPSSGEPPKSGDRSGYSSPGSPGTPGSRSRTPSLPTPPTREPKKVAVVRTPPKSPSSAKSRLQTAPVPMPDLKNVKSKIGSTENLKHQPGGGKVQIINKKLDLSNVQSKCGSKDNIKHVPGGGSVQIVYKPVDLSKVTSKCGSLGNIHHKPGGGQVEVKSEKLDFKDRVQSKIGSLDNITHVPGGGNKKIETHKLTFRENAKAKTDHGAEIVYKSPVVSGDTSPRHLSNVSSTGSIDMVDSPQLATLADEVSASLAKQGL
iPHF, P10636, sequence (P10636 other isoform, or with tags, fused parts or gaps): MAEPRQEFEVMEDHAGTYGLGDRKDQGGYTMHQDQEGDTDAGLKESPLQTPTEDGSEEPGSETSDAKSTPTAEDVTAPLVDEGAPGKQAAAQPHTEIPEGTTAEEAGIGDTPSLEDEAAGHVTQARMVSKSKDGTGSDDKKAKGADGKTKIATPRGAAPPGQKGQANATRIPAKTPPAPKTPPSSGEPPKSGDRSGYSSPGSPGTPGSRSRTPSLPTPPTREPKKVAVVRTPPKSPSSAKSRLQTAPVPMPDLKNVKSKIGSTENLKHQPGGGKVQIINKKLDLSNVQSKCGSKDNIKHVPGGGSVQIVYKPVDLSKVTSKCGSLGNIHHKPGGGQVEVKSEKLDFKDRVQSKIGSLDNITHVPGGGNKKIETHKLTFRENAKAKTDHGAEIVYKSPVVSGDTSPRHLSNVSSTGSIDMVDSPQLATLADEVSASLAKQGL

Kd (iPHF, P10636): 0.3 nM
B1: V0022 (antibody, mouse IgG1, V domains shown)
VH: QVQLQQPGTELVKPGSSVNLSCKASGFTFTRYWMHWVKERPGHGLEWIGNINPNNGGTDFNEKFKNKATLTVHKSSTTVFIQLSSLTSEDSAVYYCARGTGTGAMDYWGQGTSVTVSS
VL: DVVMTQTPLSLPVSLGDQASISCRSSQSLVHNNGITYLYWYLQKPGQSPKLLIYRVSNRFSGVPDRFGGSGSGTDFTLKISRVEAEDLGVYFCFQGTHVPRTFGGGTKLEIK

Kd (iPHF, P10636): 4 nM
B2: V0023 (antibody, mouse IgG1, V domains shown)
VH: QVQLQQPGTELVKPGASVKLSCKASGYTFTIFWMHWVKQRPGHGLEWIGKINPNNGGGDYNEKFKSKATLTVDKSSTTAYLQLSSLTSEDSAVYYCARGTGTGAMDYWGQGTSVTVSS
VL: B1 VL with Q18H, N32S, Y37H, K44R, S48T, G68S, R82S, K112E

selectivity for ePHF over wild type tau [1]: > 100 fold | EC50 [2]: 0.125 nM
B3: V0024 (antibody, mouse IgG1, V domains shown)
VH: B2 VH with I31R, H43Q, K50N, G58T, Y60N, K63R, K74R, T77S, L81M
VL: B1 VL with N32S, I35N, Y37H, N58S, G68S

From patent US20230192830A1
